Experimental data: patent US20200239543A1 (ALX ONCOLOGY, published 2020)
Residue numbers refer to the chain shown, from its start.

B1: SIRP-α D1 variant polypeptide of SEQ ID NO: 78 (receptor)
chain: EEELQIIQPDKSVLVAAGETATLRCTITSLFPVGPIQWFRGAGPGRVLIYNQRQGPFPRVTTVSDTTKRNNMDFSIRIGAITPADAGTYYCIKFRKGSPDDVEFKSGAGTELSVRAKPS
notes: engineered SIRP-α D1 domain
B2: SIRP-α D1 variant polypeptide of SEQ ID NO: 80 (receptor)
chain: B1 chain with Q54E
notes: engineered SIRP-α D1 domain
B3: SIRP-α D1 variant polypeptide of SEQ ID NO: 79 (receptor)
chain: B1 chain with I6V, I27A, V47E, T66L, I92V
notes: engineered SIRP-α D1 domain
B4: SIRP-α D1 variant polypeptide of SEQ ID NO: 64 (receptor)
chain: EEELQVIQPDKSVSVAAGESAILHCTVTSLIPVGPIQWFRGAGPARELIYNQREGPFPRVTTVSESTKRENMDFSISISNITPADAGTYYCVKFRKGSPDTEFKSGAGTELSVRAKPS
notes: engineered SIRP-α D1 domain
B5: SIRP-α D1 variant polypeptide of SEQ ID NO: 68 (receptor)
chain: B4 chain with V6I, V27I, I31F
notes: engineered SIRP-α D1 domain
B6: SIRP-α D1 variant polypeptide of SEQ ID NO: 67 (receptor)
chain: B4 chain with V27I, I31F, S66T
notes: engineered SIRP-α D1 domain
B7: SIRP-α D1 variant polypeptide of SEQ ID NO: 65 (receptor)
chain: B4 chain with I31F
notes: engineered SIRP-α D1 domain
B8: SIRP-α D1 variant polypeptide of SEQ ID NO: 69 (receptor)
chain: B4 chain with V27I
notes: engineered SIRP-α D1 domain
B9: SIRP-α D1 variant polypeptide of SEQ ID NO: 66 (receptor)
chain: B4 chain with V27I, I31F
notes: engineered SIRP-α D1 domain
B10: SIRP-α D1 variant fused to Fc variant, SEQ ID NO: 110 (Fc fusion)
chain: EEELQVIQPDKSVLVAAGETATLRCTITSLFPVGPIQWFRGAGPGRELIYNQREGPFPRVTTVSDLTKRNNMDFSIRIGAITPADAGTYYCVKFRKGSPDDVEFKSGAGTELSVRAKPSVECPPCPAPPVAGPSVFLFPPKPKDTLMISRTPEVTCVVVDVSHEDPEVQFNWYVDGVEVHNAKTKPREEQFASTFRVVSVLTVVHQDWLNGKEYKCKVSNKGLPSSIEKTISKTKGQPREPQVYTLPPSREEMTKNQVSLTCLVKGFYPSDIAVEWESNGQPENNYKTTPPMLDSDGSFFLYSKLTVDKSRWQQGNVFSCSVMHEALHNHYTQKSLSLSPGK
B11: SIRP-α D1 variant fused to Fc variant, SEQ ID NO: 106 (Fc fusion)
chain: B10 chain with I27A, E54Q, A80N
B12: SIRP-α D1 variant fused to Fc variant, SEQ ID NO: 135 (Fc fusion)
chain: EEELQVIQPDKSVLVAAGETATLRCTATSLFPVGPIQWFRGAGPGRELIYNQREGPFPRVTTVSDLTKRNNMDFSIRIGAITPADAGTYYCVKFRKGSPDDVEFKSGAGTELSVRAKPSDKTHTCPPCPAPEAAGAPSVFLFPPKPKDTLMISRTPEVTCVVVDVSHEDPEVKFNWYVDGVEVHNAKTKPREEQYASTYRVVSVLTVLHQDWLNGKEYKCKVSNKALPAPIEKTISKAKGQPREPQVYTLPPSREEMTKNQVSLTCLVKGFYPSDIAVEWESNGQPENNYKTTPPVLDSDGSFFLYSKLTVDKSRWQQGNVFSCSVMHEALHNHYTQKSLSLSPG
B13: SIRP-α D1 variant fused to Fc variant, SEQ ID NO: 101 (Fc fusion)
chain: EEELQVIQPDKSVLVAAGETATLRCTITSLFPVGPIQWFRGAGPGRELIYNQREGPFPRVTTVSDLTKRNNMDFSIRIGAITPADAGTYYCVKFRKGSPDDVEFKSGAGTELSVRAKPSDKTHTCPPCPAPEAAGAPSVFLFPPKPKDTLMISRTPEVTCVVVDVSHEDPEVKFNWYVDGVEVHNAKTKPREEQYASTYRVVSVLTVLHQDWLNGKEYKCKVSNKALPAPIEKTISKAKGQPREPQVYTLPPSREEMTKNQVSLTCLVKGFYPSDIAVEWESNGQPENNYKTTPPVLDSDGSFFLYSKLTVDKSRWQQGNVFSCSVMHEALHNHYTQKSLSLSPGK
B14: SIRP-α D1 variant fused to Fc variant, SEQ ID NO: 99 (Fc fusion)
chain: B13 chain with I27A, E54Q
B15: SIRP-α D1 variant fused to Fc variant, SEQ ID NO: 102 (Fc fusion)
chain: B13 chain with V6I

Molecular target: T1, human CD47 (human, UniProt Q08722 19-139)
T1 construct: extracellular domain; also called CD47 ECD
Experiment: SPR, 25 C, 1:1 Langmuir fit

T1 sequence (Q08722 19-139 limits assumed): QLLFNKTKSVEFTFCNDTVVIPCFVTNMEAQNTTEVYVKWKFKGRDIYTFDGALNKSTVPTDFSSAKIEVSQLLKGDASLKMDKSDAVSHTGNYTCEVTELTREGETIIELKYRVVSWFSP

Binder	Kd
B1	0.0144 nM
B2	0.0472 nM
B3	0.217 nM
B4	5.45 nM
B5	0.251 nM
B6	0.206 nM
B7	0.8 nM
B8	2.4 nM
B9	0.47 nM

Molecular target: T1, human CD47
Experiment: SPR as in Example 1

Binder	Kd
B10	0.653 nM
B11	0.811 nM
B12	3.46 nM
B13	0.89 nM
B14	0.895 nM
B15	0.379 nM
